Assays:
[1] = molecular target: T1, GST-Obsc_(6316–6345) (Rattus norvegicus); test: SPR
T1 chain: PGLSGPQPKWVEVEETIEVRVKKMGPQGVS

[2] = molecular target: GST-Obsc_(6231–6260) (Rattus norvegicus); test: SPR

B1: sAnk1-MBP I102A (domain or fragment)
chain: VKGSLCFVLKHIHQELDKELGESEGLSDDEETISTRVVRRRVFLKGDELQNIPGEQVTEEQFTDEQGNIVTKKAIRKVVRQVDSSGAIDTQQHEEVELRGSGLQPDLIEGRKGAQIVKRASLKRGKQ
With B1 as the binder, how does the “fold reduction in kon against wild type” value [1] read?
The value was about 3 fold.

B2: sAnk1-MBP I103A (domain or fragment)
chain: VKGSLCFVLKHIHQELDKELGESEGLSDDEETISTRVVRRRVFLKGDELQNIPGEQVTEEQFTDEQGNIVTKKIARKVVRQVDSSGAIDTQQHEEVELRGSGLQPDLIEGRKGAQIVKRASLKRGKQ
With B2 as the binder, how does the “fold decrease in kon against wild type” value [2] read?
Its value is about 2 fold.

B3: sAnk1-MBP F71A (domain or fragment)
chain: VKGSLCFVLKHIHQELDKELGESEGLSDDEETISTRVVRRRVALKGDELQNIPGEQVTEEQFTDEQGNIVTKKIIRKVVRQVDSSGAIDTQQHEEVELRGSGLQPDLIEGRKGAQIVKRASLKRGKQ
For B3, which “fold decrease in kon against wild type” value [2] is on record?
The value was about 2 fold.

B4: sAnk1-MBP (wild type, sAnk1 residues 29–155) (domain or fragment)
chain: VKGSLCFVLKHIHQELDKELGESEGLSDDEETISTRVVRRRVFLKGDELQNIPGEQVTEEQFTDEQGNIVTKKIIRKVVRQVDSSGAIDTQQHEEVELRGSGLQPDLIEGRKGAQIVKRASLKRGKQ
How did the Kd [1] turn out when B4 was run?
The Kd was about 130 nM.
